# Experimental data as given in paper doi:10.1101/2024.05.23.595491 (bioRxiv, 2024).
# T1: SH3BP2-FLAG (full-length) (mouse, UniProt Q06649 1-559)
# T1 sequence: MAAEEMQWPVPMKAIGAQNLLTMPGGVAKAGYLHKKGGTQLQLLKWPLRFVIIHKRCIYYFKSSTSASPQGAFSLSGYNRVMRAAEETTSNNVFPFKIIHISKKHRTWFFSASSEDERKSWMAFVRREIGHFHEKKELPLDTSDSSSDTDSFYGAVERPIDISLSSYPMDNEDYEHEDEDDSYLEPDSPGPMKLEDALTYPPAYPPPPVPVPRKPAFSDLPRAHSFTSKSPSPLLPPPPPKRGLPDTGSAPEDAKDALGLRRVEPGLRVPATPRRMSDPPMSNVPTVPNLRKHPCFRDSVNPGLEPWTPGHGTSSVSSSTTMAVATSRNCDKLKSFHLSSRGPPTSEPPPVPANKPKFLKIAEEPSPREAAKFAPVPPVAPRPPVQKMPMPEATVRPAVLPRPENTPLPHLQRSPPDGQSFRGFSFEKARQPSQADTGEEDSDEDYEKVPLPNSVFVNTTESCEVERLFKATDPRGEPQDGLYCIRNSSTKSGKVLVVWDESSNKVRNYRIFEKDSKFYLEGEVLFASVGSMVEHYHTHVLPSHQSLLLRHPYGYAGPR
# B1: GST-mGFP-SH3BP2-FLAG (natural protein)
# chain: MAAEEMQWPVPMKAIGAQNLLTMPGGVAKAGYLHKKGGTQLQLLKWPLRFVIIHKRCIYYFKSSTSASPQGAFSLSGYNRVMRAAEETTSNNVFPFKIIHISKKHRTWFFSASSEDERKSWMAFVRREIGHFHEKKELPLDTSDSSSDTDSFYGAVERPIDISLSSYPMDNEDYEHEDEDDSYLEPDSPGPMKLEDALTYPPAYPPPPVPVPRKPAFSDLPRAHSFTSKSPSPLLPPPPPKRGLPDTGSAPEDAKDALGLRRVEPGLRVPATPRRMSDPPMSNVPTVPNLRKHPCFRDSVNPGLEPWTPGHGTSSVSSSTTMAVATSRNCDKLKSFHLSSRGPPTSEPPPVPANKPKFLKIAEEPSPREAAKFAPVPPVAPRPPVQKMPMPEATVRPAVLPRPENTPLPHLQRSPPDGQSFRGFSFEKARQPSQADTGEEDSDEDYEKVPLPNSVFVNTTESCEVERLFKATDPRGEPQDGLYCIRNSSTKSGKVLVVWDESSNKVRNYRIFEKDSKFYLEGEVLFASVGSMVEHYHTHVLPSHQSLLLRHPYGYAGPR
# What was measured:
# [1] = biological target: T1, SH3BP2-FLAG (full-length); test: co-IP
# sedimentation assay = biological target: the molecule itself; test: sedimentation assay
# GST-mGFP-SH3BP2-FLAG = biological target: B1; test: recruitment into protein droplets
binder,measurement,setting,value
GST-cytAChRα (domain or fragment) NTHHRSPSTHIMPEWVRKVFIDTIPNIMFFSTMKRPSRDKQEKRIFTEDIDISDISGKPGPPPMGFHSPLIKHPEVKSAIEGVKYIAETMKSDQESNNAAEEWKYVAMVMDH,binding result,[1],binds
B1,binding result,sedimentation assay,binds
GST-cytAChRα-mCherry (domain or fragment) NTHHRSPSTHIMPEWVRKVFIDTIPNIMFFSTMKRPSRDKQEKRIFTEDIDISDISGKPGPPPMGFHSPLIKHPEVKSAIEGVKYIAETMKSDQESNNAAEEWKYVAMVMDH,binding result,GST-mGFP-SH3BP2-FLAG,binds
